Measured values reported in patent US12491259B2, “Anti-variable MUC1* antibodies and uses thereof” (Minerva Biotechnologies Corporation, priority 2022, dated 2025).

Test system: T47D-MUC1* breast cancer cells
Assay: ADC cell killing, photographs and PrestoBlue live/dead cell assay
Assay type: cell-based, human
Settings: 500 nM and 6.2 nM, 120 hours
Description: T47D-MUC1* is a cell line in which T47D cells have been transduced to express even more MUC1*. MNC2-ADC was incubated with T47D-WT cells (FIG. 10A-10G) or T47D-MUC1* cells (FIG. 11A-11G). […] These experiments are shown as just one example. […] The toxin that is attached to the anti-MUC1* antibody may be one of several known to those skilled in the art. Similarly, MNC2 may be human or humanized.
In this next experiment, a valine-citrulline p-aminobenzylcarbamate (VC-PAB) linker was used to connect the deglycosylated antibody and the toxin. The linker is separately coupled to the MMAE at one end, then the other end is reacted with maleimide, then coupled to the antibody after reduction through alkylation. MMAE inhibits cell division by blocking the polymerization of tubulin. […] The viability of the 72 hour co-cultures was measured using a cell death indicator called PrestoBlue™ (Thermo Fisher Scientific, Waltham, MA) (FIG. 17). […]
As another example of how antibodies of the invention can be incorporated into ADCs, antibody drug conjugates, for the treatment of MUC1* positive cancers, a toxin was attached to another anti-MUC1* antibody, 20A10. […] The viability of the 72 hour co-cultures was measured using a cell death indicator called PrestoBlue™ (Thermo Fisher Scientific, Waltham, MA) (FIG. 19). […]

B1: MNC2-Deruxtecan (conjugate)
VH: EVQLVESGGGLVKPGGSLRLSCAASGFTFSGYAMSWVRQAPGKGLEWVSTISSGGTYIYYPDSVKGRFTISRDNAKNSLYLQMNSLRAEDTAVYYCARLGGDNYYEYFDVWGKGTTVTVSS
VL: DIVLTQSPASLAVSPGQRATITCRASKSVSTSGYSYMHWYQQKPGQPPKLLIYLASNLESGVPARFSGSGSGTDFTLTINPVEANDTANYYCQHSRELPFTFGGGTKVEIKRT
  killing effect in photographs: significant decrease in cell number
